From PMC4686757

B1: canonical symmetrical E2F site GCGCGCC (dsDNA)
DNA 1: CTTTTGCGCGCCAAAG
DNA 2: CTTTGGCGCGCAAAAG
B2: E2F8 SELEX-preferred site GGCGGG (dsDNA)
DNA 1: TTTTTGGCGGGAAAA
DNA 2: TTTTCCCGCCAAAAA

Columns and labels:
E2F8 DBD1-DBD2 [1] = molecular target: T1, E2F8 DBD1-DBD2 (human, UniProt A0AVK6 110-350); assay: ITC; no binding detected under same conditions, 20 C; ITC: 20 mM HEPES pH 7.5, 150 mM NaCl, 5% glycerol, TCEP (printed 0.5 M), 20 C; 0.1 mM protein into 0.012-0.016 mM DNA
E2F8 DBD1-DBD2 [2] = molecular target: T1, E2F8 DBD1-DBD2; assay: ITC; 20 C; ITC: 20 mM HEPES pH 7.5, 150 mM NaCl, 5% glycerol, TCEP (printed 0.5 M), 20 C; 0.1 mM protein into 0.012-0.016 mM DNA

T1 sequence (A0AVK6 110-350): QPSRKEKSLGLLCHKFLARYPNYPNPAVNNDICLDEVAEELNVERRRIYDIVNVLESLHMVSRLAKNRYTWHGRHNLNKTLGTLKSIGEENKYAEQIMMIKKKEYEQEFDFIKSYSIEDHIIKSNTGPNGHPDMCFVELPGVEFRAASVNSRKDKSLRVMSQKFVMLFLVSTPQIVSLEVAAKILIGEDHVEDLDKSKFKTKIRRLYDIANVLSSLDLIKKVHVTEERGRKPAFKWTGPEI

Binder | binding result (E2F8 DBD1-DBD2 [1]) | Kd (E2F8 DBD1-DBD2 [2])
B1 | no binding | –
B2 | – | ~260 nM
